Target: human IL-17A (human) (UniProt Q16552)
Assay: BLI Octet Red 96; Fab on anti-FABCH1 sensors, IL-17A 30 µg/ml as analyte, 1:1 model

Chain of human IL-17A (human) (Q16552 20-155 limits assumed): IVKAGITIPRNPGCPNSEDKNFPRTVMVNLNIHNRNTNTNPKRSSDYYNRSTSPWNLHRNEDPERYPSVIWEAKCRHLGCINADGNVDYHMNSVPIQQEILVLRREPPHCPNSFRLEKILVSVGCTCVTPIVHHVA

koff: < 2.27e-06 s⁻¹
B1: 3VHHVK4B11 Fab (Fab, part only; not given: Light chain VK4B11, tags, not shown: small tags and cut ends)
heavy: QVQLQQSGGGSVQAGGSLRLSCAASGGTFATSPMGWLRQAPGKEREFVAAISPSGGDRIYDDSVKGRFTISRDNAGYFIYLQMNSLKPEDTARYYCAVRRRFDGTSYYTGDYDSWGQGTLVTVSS

— patent publication US20210332120A1
